From US20190282704A1
Positions count from the first letter of the chain named. Names and notes keep the numbering of the source. Values belong to the binder of their own block, whether it stands above or below them.

Legend:
[1] = molecular target: wildtype feline IL-31 (Feline_IL31_wildtype) (feline); test: SPR (Biacore), immobilised IL-31, 1:1 fit
[2] = molecular target: canine IL-31 (Canine_IL31) (canine); test: SPR (Biacore), immobilised IL-31, 1:1 fit
Sequence of canine IL-31 (Canine_IL31) (canine) (chain, as listed by the source limits assumed, form in doubt): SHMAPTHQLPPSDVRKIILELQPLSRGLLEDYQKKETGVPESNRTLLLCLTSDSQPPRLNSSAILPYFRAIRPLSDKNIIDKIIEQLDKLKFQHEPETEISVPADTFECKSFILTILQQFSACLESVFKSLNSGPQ

Sequence of wildtype feline IL-31 (Feline_IL31_wildtype) (feline) (chain, as listed by the source limits assumed, form in doubt): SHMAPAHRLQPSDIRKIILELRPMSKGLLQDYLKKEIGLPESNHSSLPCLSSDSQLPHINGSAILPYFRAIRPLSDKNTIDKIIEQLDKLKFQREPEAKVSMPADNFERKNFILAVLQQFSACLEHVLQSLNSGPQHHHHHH

B1: Feline 11E12 1.1 K46Q (antibody, V domains shown)
VH: QVLLVQSGAEVKKPGASVKIFCKASGYSFTYYDINWLRQAPEQGLEWMGWIFPGDGGTKYNETFKGRLTLTADTSTNTVYMELSSLRSADTAMYYCARGGTSVIRDAMDYWGQGALVTVSS
VL: EIQMTQSPSSLSASPGDRVTITCRASESVDNYGISFMHWYQQKPGQVPKLLIYRASNLESGVPSRFSGSGSGTDFTLTISSLEPEDAATYYCQQSNKDPLTFGQGT
Kd [1]: 12.6 nM
koff [1]: 0.000145 s⁻¹
kon [1]: 11500 M⁻¹ s⁻¹
Kd [2]: 1.91 nM
koff [2]: 8.85e-05 s⁻¹
kon [2]: 46400 M⁻¹ s⁻¹

B4: Feline 15H05 1.1 FW1 (antibody, V domains shown)
VH: QVLLVQSGAEVRTPGASVKIFCKASGYSFTSYTIHWLRQAPAQGLEWMGNINPTSGYTENNQRFKDRLTLTADTSTNTAYMELSSLRSADTAMYYCARWGFKYDGEWSFDVWGAGTTVTVSS
VL: DIQMNQSPSSLSASLGDTITVTCRASQGISIWLSWYQQKPGKVPKLLIYKASNLHIGVPSRFSGSGSGTDFTLTISSLEPEDAATYYCLQSQTYPLTFGGGTKLEIK
Kd [1]: 564 nM
koff [1]: 0.00286 s⁻¹
kon [1]: 5060 M⁻¹ s⁻¹
Kd [2]: 813 nM
koff [2]: 0.0156 s⁻¹
kon [2]: 19200 M⁻¹ s⁻¹

B5: Feline 15H05 1.1 FW1_3 (antibody, V domains shown)
VH: B4 VH
VL: B4 VL with S60P, D70H, S76T, E79Q, A83I
Kd [1]: 0.0674 nM
koff [1]: 3.02e-05 s⁻¹
kon [1]: 448000 M⁻¹ s⁻¹
Kd [2]: 0.00436 nM
koff [2]: 2.88e-08 s⁻¹
kon [2]: 6590 M⁻¹ s⁻¹

B7: Feline 15H05 1.1 L46V (antibody, V domains shown)
VH: B4 VH
VL: B4 VL with D1E, N5T, L15P, T18R, I19V, V21I, L46V
Kd [1]: 22.8 nM
koff [1]: 0.000811 s⁻¹
kon [1]: 35500 M⁻¹ s⁻¹

B8: Feline 15H05 1.2 (antibody, V domains shown)
VH: B4 VH
VL: EITMTQSPGSLAGSPGQQVTMNCRASQGISIWLSWYQQKPGQHPKLLIYKASNLHIGVPDRFSGSGSGTDFTLTISNLQAEDVASYYCLQSQTYPLTFGGGTKLEIK
Kd [1]: 104 nM
koff [1]: 0.00147 s⁻¹
kon [1]: 14100 M⁻¹ s⁻¹
Kd [2]: 3.48 nM
koff [2]: 0.000115 s⁻¹
kon [2]: 33000 M⁻¹ s⁻¹

B9: Feline 15H05 1.1_FW1_2 (antibody, V domains shown)
VH: B4 VH
VL: B4 VL with K42N, V43I, L46V, Y49N
Kd [1]: 0.887 nM
koff [1]: 6.7e-06 s⁻¹
kon [1]: 7560 M⁻¹ s⁻¹
Kd [2]: 0.263 nM
koff [2]: 3.82e-06 s⁻¹
kon [2]: 6910 M⁻¹ s⁻¹

B10: Feline 15H05 1.1 K42N (antibody, V domains shown)
VH: B4 VH
VL: B4 VL with D1E, N5T, L15P, T18R, I19V, V21I, K42N
Kd [1]: 6770 nM
koff [1]: 0.011 s⁻¹
kon [1]: 1630 M⁻¹ s⁻¹

B16: Feline 15H05 1.1 (antibody, V domains shown)
VH: B4 VH
VL: B4 VL with D1E, N5T, L15P, T18R, I19V, V21I
Kd [1]: 13.5 nM
koff [1]: 0.00131 s⁻¹
kon [1]: 97100 M⁻¹ s⁻¹
Kd [2]: 0.00504 nM
koff [2]: 1.36e-07 s⁻¹
kon [2]: 27000 M⁻¹ s⁻¹

B17: Feline 15H05 1.3 (antibody, V domains shown)
VH: B4 VH
VL: EVVLTQSSAFLSRTLKEKATITCRASQGISIWLSWYQQKPNQAPKLLVKKASNLHIGAPSRFSGSGSGTDFTLTISSPEPEDAATYYCLQSQTYPLTFGGGTKLGDQ
Kd [1]: 86.4 nM
koff [1]: 0.00328 s⁻¹
kon [1]: 38000 M⁻¹ s⁻¹
Kd [2]: 6.38 nM
koff [2]: 0.00019 s⁻¹
kon [2]: 29700 M⁻¹ s⁻¹

B18: Feline 15H05 2.1 (antibody, V domains shown)
VH: B4 VH with S28G, L37V, A40S
VL: B4 VL with D1E, N5T, L15P, T18R, I19V, V21I
Kd [1]: 22.3 nM
koff [1]: 0.00465 s⁻¹
kon [1]: 208000 M⁻¹ s⁻¹
Kd [2]: 1.65 nM
koff [2]: 0.000866 s⁻¹
kon [2]: 525000 M⁻¹ s⁻¹

B19: Feline 15H05 1.1 FW3 (antibody, V domains shown)
VH: B4 VH
VL: EIQMTQSPSSLSASPGDRVTITCRASQGISIWLSWYQQKPGKVPKLLIYKASNLHIGVPPRFSGSGSGTHFTLTITSLQPEDIATYYCLQSQTYPLTFGGGTKLEIK
Kd [1]: 0.0564 nM
koff [1]: 1.21e-05 s⁻¹
kon [1]: 214000 M⁻¹ s⁻¹
Kd [2]: 0.13 nM
koff [2]: 3.91e-07 s⁻¹
kon [2]: 3000 M⁻¹ s⁻¹

B20: Feline 15H05 1.1 FW2_3 (antibody, V domains shown)
VH: B4 VH
VL: B19 VL with K42N, V43I, L46V, Y49N
Kd [1]: 123 nM
koff [1]: 0.00116 s⁻¹
kon [1]: 9490 M⁻¹ s⁻¹
Kd [2]: 214 nM
koff [2]: 0.00193 s⁻¹
kon [2]: 9050 M⁻¹ s⁻¹

B21: Feline 15H05 1.1 FW2 (antibody, V domains shown)
VH: B4 VH
VL: B19 VL with K42N, V43I, L46V, Y49N, P60S, H70D, T76S, Q79E, I83A
Kd [1]: 0.065 nM
koff [1]: 2.49e-05 s⁻¹
kon [1]: 383000 M⁻¹ s⁻¹
Kd [2]: 0.000431 nM
koff [2]: 1.66e-07 s⁻¹
kon [2]: 384000 M⁻¹ s⁻¹

B22: Feline 15H05 1.1 K42N_V43I (antibody, V domains shown)
VH: B4 VH
VL: B19 VL with K42N, V43I, P60S, H70D, T76S, Q79E, I83A
Kd [1]: 9.42 nM
koff [1]: 0.0022 s⁻¹
kon [1]: 234000 M⁻¹ s⁻¹

B23: Feline 15H05 1.1 Y49N (antibody, V domains shown)
VH: B4 VH
VL: B19 VL with Y49N, P60S, H70D, T76S, Q79E, I83A
Kd [1]: 39.5 nM
koff [1]: 0.00095 s⁻¹
kon [1]: 24000 M⁻¹ s⁻¹

B24: Feline 15H05 1.1 V43I (antibody, V domains shown)
VH: B4 VH
VL: B19 VL with V43I, P60S, H70D, T76S, Q79E, I83A
Kd [1]: 13.6 nM
koff [1]: 0.000401 s⁻¹
kon [1]: 29400 M⁻¹ s⁻¹

Next, values leading:

Kd [1]: 0.474 nM
koff [1]: 2.18e-05 s⁻¹
kon [1]: 46000 M⁻¹ s⁻¹
B2: ZTS-361 (antibody)
heavy: QVLLVQSGAEVRTPGASVKIFCKASGYSFTSYTIHWLRQAPAQGLEWMGNINPTSGYTENNQRFKDRLTLTADTSTNTAYMELSSLRSADTAMYYCARWGFKYDGEWSFDVWGAGTTVTVSSASTTAPSVFPLAPSCGTTSGATVALACLVLGYFPEPVTVSWNSGALTSGVHTFPAVLQASGLYSLSSMVTVPSSRWLSDTFTCNVAHPPSNTKVDKTVRKTDHPPGPKPCDCPKCPPPEAAGAPSIFIFPPKPKDTLSISRTPEVTCLVVDLGPDDSDVQITWFVDNTQVYTAKTSPREEQFNSTYRVVSVLPILHQDWLKGKEFKCKVNSKSLPSPIERTISKAKGQPHEPQVYVLPPAQEELSRNKVSVTCLIKSFHPPDIAVEWEITGQPEPENNYRTTPPQLDSDGTYFVYSKLSVDRSHWQRGNTYTCSVSHEALHSHHTQKSLTQSPGK
light: EIQMTQSPSSLSASPGDRVTITCRASQGISIWLSWYQQKPGNIPKVLINKASNLHIGVPSRFSGSGSGTDFTLTISSLEPEDAATYYCLQSQTYPLTFGGGTKLEIKRSDAQPSVFLFQPSLDELHTGSASIVCILNDFYPKEVNVKWKVDGVVQNKGIQESTTEQNSKDSTYSLSSTLTMSSTEYQSHEKFSCEVTHKSLASTLVKSFQRSECQRE

Kd [1]: 0.168 nM
koff [1]: 2.2e-05 s⁻¹
kon [1]: 131000 M⁻¹ s⁻¹
Kd [2]: 0.00246 nM
koff [2]: 2.66e-07 s⁻¹
kon [2]: 108000 M⁻¹ s⁻¹
B3: Feline 15H05_VH1 mouse VL (antibody, V domains shown)
VH: B4 VH
VL: B4 VL with K42N, V43I, L46V, Y49N, S60P, D70H, S76T, E79Q, A83I, K107N

Kd [1]: 37.1 nM
koff [1]: 0.00166 s⁻¹
kon [1]: 44700 M⁻¹ s⁻¹
Kd [2]: 0.795 nM
koff [2]: 2.11e-05 s⁻¹
kon [2]: 26500 M⁻¹ s⁻¹
B6: Feline 15H05 3.1 (antibody, V domains shown)
VH: B4 VH with T13K, A42E
VL: B19 VL with P60S, H70D, T76S, Q79E, I83A

Kd [1]: 11.6 nM
koff [1]: 0.000886 s⁻¹
kon [1]: 76300 M⁻¹ s⁻¹
B11: Feline 15H05 3.3 (antibody, V domains shown)
VH: B4 VH with T13K, A42E
VL: B17 VL

Kd [1]: 2.15 nM
koff [1]: 0.00195 s⁻¹
kon [1]: 905000 M⁻¹ s⁻¹
Kd [2]: 0.393 nM
koff [2]: 1.09e-05 s⁻¹
kon [2]: 27700 M⁻¹ s⁻¹
B12: Feline 15H05 2.2 (antibody, V domains shown)
VH: B4 VH with S28G, L37V, A40S
VL: B8 VL

Kd [1]: 0.177 nM
koff [1]: 1.57e-05 s⁻¹
kon [1]: 88900 M⁻¹ s⁻¹
Kd [2]: 0.00264 nM
koff [2]: 2.64e-07 s⁻¹
kon [2]: 100000 M⁻¹ s⁻¹
B13: Feline 15H05_VH3 mouse VL (antibody, V domains shown)
VH: B4 VH with T13K, A42E
VL: B4 VL with K42N, V43I, L46V, Y49N, S60P, D70H, S76T, E79Q, A83I, K107N

Kd [1]: 1.57 nM
koff [1]: 0.000535 s⁻¹
kon [1]: 341000 M⁻¹ s⁻¹
B14: Feline 15H05 2.3 (antibody, V domains shown)
VH: B4 VH with S28G, L37V, A40S
VL: B17 VL

Kd [1]: 1.61 nM
koff [1]: 5.47e-05 s⁻¹
kon [1]: 34000 M⁻¹ s⁻¹
Kd [2]: 2.22 nM
koff [2]: 0.000379 s⁻¹
kon [2]: 171000 M⁻¹ s⁻¹
B15: Feline 15H05 VH2 mouse VL (antibody, V domains shown)
VH: B4 VH with S28G, L37V, A40S
VL: B4 VL with K42N, V43I, L46V, Y49N, S60P, D70H, S76T, E79Q, A83I, K107N
